Laboratory results: the Human Domainome abundance scans (Beltran et al. 2025)
± gives the uncertainty stated by the source.

B1: Cytoplasmic polyadenylation element-binding protein 2, residues 513 to 575; numbered along this chain, Q7Z5Q1 (parent)
chain: KRVEVKPYVLDDQMCDECQGARCGGKFAPFFCANVTCLQYYCEFCWANIHSRAGREFHKPLVK

Variants of: B1
Assay: abundance fitness (aPCA) (normalised: wild type 0, dead -1); higher = more abundant; growth selection in yeast, the domain comes from the species named
Details: Homo sapiens

| Variant | abundance fitness |
| --- | --- |
| KRVEVKPYVLDDQMCDECQGARCGGKFAPFFCANVTCLQYYCEFCWANIHSRAGREFHKCLVK [P60C] | -0.154 ± 0.075 |
| KRVEVKPYVLDDQMCDECQGARCGGKFAPFFCANVTCLQYYCEFCWANIHSRAGREFHKQLVK [P60Q] | 0.051 ± 0.046 |
| KRVEVKPYVLDDQMCDECQGARCGGKFAPFFCNNVTCLQYYCEFCWANIHSRAGREFHKPLVK [A33N] | 0.002 ± 0.07 |
| KRVEVKPYVLDDQMCDECQGARCGGKFAPFFCMNVTCLQYYCEFCWANIHSRAGREFHKPLVK [A33M] | -0.18 ± 0.047 |
| KRVEVKPYVLDDQMCDECQGAPCGGKFAPFFCANVTCLQYYCEFCWANIHSRAGREFHKPLVK [R22P] | -0.504 ± 0.076 |
| KRVEVKPYVLDDQMCDECQGACCGGKFAPFFCANVTCLQYYCEFCWANIHSRAGREFHKPLVK [R22C] | -0.419 ± 0.23 |
| KRVEVKPYVLDDQMCDECQGAGCGGKFAPFFCANVTCLQYYCEFCWANIHSRAGREFHKPLVK [R22G] | -0.303 ± 0.054 |
| KRVEVKPYVLDDQMCDECQGARCGGKFAPFFCANVTCLQYYCEFCWANIHSRAGREFMKPLVK [H58M] | -0.653 ± 0.091 |
| KRVEVKPYVLDDPMCDECQGARCGGKFAPFFCANVTCLQYYCEFCWANIHSRAGREFHKPLVK [Q13P] | -0.211 ± 0.049 |
| KRVEVKPYVLDDQMCDECQGARCGGKFAPFYCANVTCLQYYCEFCWANIHSRAGREFHKPLVK [F31Y] | 0.033 ± 0.086 |
| KRVEVKPYVLDDQMCDECQGARCGGKFAPFMCANVTCLQYYCEFCWANIHSRAGREFHKPLVK [F31M] | -0.461 ± 0.11 |
| KRVEVKPYVLDDQMCDECQGARCGGKFAPFFCANVTQLQYYCEFCWANIHSRAGREFHKPLVK [C37Q] | -1.02 ± 0.13 |
| KRVEVKPYVLDDQMCDECQGARCGGKFAPFFCANVTALQYYCEFCWANIHSRAGREFHKPLVK [C37A] | -0.82 ± 0.06 |
| KRVEVKPYVLDDQMCDECQGARCGGKFAPFFCANVTVLQYYCEFCWANIHSRAGREFHKPLVK [C37V] | -0.88 ± 0.068 |
| KRVEVKPYVLDDQMCDECQGARCGGKFAPFFCANVTCLQYYCEFCGANIHSRAGREFHKPLVK [W46G] | -0.567 ± 0.082 |
| KRVEVKPYVLDDQMCDECQGARCGGKFAPFFCANVTCLQYYCEFCAANIHSRAGREFHKPLVK [W46A] | -0.503 ± 0.06 |
| KRVEVKPYVLDDQMCDECQGARCGGKFAPFFCANVTCLQYYCEFCWADIHSRAGREFHKPLVK [N48D] | 0.007 ± 0.07 |
| KRVEVKPYVLDDQMCDRCQGARCGGKFAPFFCANVTCLQYYCEFCWANIHSRAGREFHKPLVK [E17R] | -0.059 ± 0.035 |
| KRVEVKPYVLDDQMCDECQGARCGGKFAPFFCANVTCLQYYCEFCWANQHSRAGREFHKPLVK [I49Q] | -0.132 ± 0.067 |
| KRVEVKPYVLDDQMCDECQGARCGGKFAPFFCANVTCLQYYCEFCWANCHSRAGREFHKPLVK [I49C] | -0.443 ± 0.12 |
| KRVEVKPYVLDDQMCDECQGARCGGKFAPFFCANVTCLQYYCEFCWANWHSRAGREFHKPLVK [I49W] | -0.268 ± 0.096 |

| Variant | abundance fitness |
| --- | --- |
| KRVEVKPYVLMDQMCDECQGARCGGKFAPFFCANVTCLQYYCEFCWANIHSRAGREFHKPLVK [D11M] | -0.259 ± 0.056 |
| KRVEVKPYVLDDQMCDECQGARCGGKFAPFFCANVTCLQYYCEFCWANIHSRAGREFHKPLVN [K63N] | -0.091 ± 0.11 |
| KRVEVKPYVLDDQMCDECQGARCHGKFAPFFCANVTCLQYYCEFCWANIHSRAGREFHKPLVK [G24H] | -0.252 ± 0.12 |
| KRVEVKPYVLDDQMCDECQGARCMGKFAPFFCANVTCLQYYCEFCWANIHSRAGREFHKPLVK [G24M] | -0.275 ± 0.06 |
| KRVEVKPYVLDDQMCDECQGARCAGKFAPFFCANVTCLQYYCEFCWANIHSRAGREFHKPLVK [G24A] | -0.052 ± 0.051 |
| KRVEVKPYVLDDQMCDECVGARCGGKFAPFFCANVTCLQYYCEFCWANIHSRAGREFHKPLVK [Q19V] | -0.093 ± 0.042 |
| KRVEVKPYVLDDQMCDECQGARCGGKFAPFFCANVTCLQYYCEFEWANIHSRAGREFHKPLVK [C45E] | -1.16 ± 0.14 |
| KRVEVKPYVLDDQMCDECQGARCGGKFAPFFCANVTCLQYYCEFRWANIHSRAGREFHKPLVK [C45R] | -1.05 ± 0.066 |
| KRVEVKPYVLDDQMCDECQGARCGGAFAPFFCANVTCLQYYCEFCWANIHSRAGREFHKPLVK [K26A] | -0.016 ± 0.045 |
| KRVEVKPYVLDDQMCDECQGARCGGQFAPFFCANVTCLQYYCEFCWANIHSRAGREFHKPLVK [K26Q] | -0.132 ± 0.058 |
| KRVEVKPYVLDDQMCDECQGARCGGKFAPFFCANVTCLQYYCEFCWANIMSRAGREFHKPLVK [H50M] | -0.875 ± 0.1 |
| KRVEVKPYVLDDQMCDECQGARCGGKFAPFFCANVTCLQYYCEFCWANINSRAGREFHKPLVK [H50N] | -0.827 ± 0.18 |
| KRVEVKPYVLDDQMCDECQGARCGGKFAPFFCANVTCLQYYCEFCWANIFSRAGREFHKPLVK [H50F] | -0.904 ± 0.11 |
| KRVEVKPYVLDDQMCDECQGARCGGKFAPFFCANVTCLQYYCDFCWANIHSRAGREFHKPLVK [E43D] | -0.049 ± 0.083 |
| KRVEVKPYVLDDQMCDECQGARCGGKFAPFFCANVTCLQYYCWFCWANIHSRAGREFHKPLVK [E43W] | -0.136 ± 0.051 |
| KRVEVKPYVLDDQMCDECQGARCGGKTAPFFCANVTCLQYYCEFCWANIHSRAGREFHKPLVK [F27T] | -0.053 ± 0.053 |
| KRVEVKPYVLDDQMCDECQGARCGGKFAPFFCANVTCLPYYCEFCWANIHSRAGREFHKPLVK [Q39P] | -0.799 ± 0.091 |
| KRVEVKPYVLDDQMCDECQGARCGGKFAPFFCANVTCLCYYCEFCWANIHSRAGREFHKPLVK [Q39C] | -0.046 ± 0.064 |
| KRVEVKPYVLDDQMCDECQGARCGGKFAPFFCANVDCLQYYCEFCWANIHSRAGREFHKPLVK [T36D] | 0.108 ± 0.077 |
| KRVEVKPYVLDDQMCDECQGARCGGKFAPFFCANVICLQYYCEFCWANIHSRAGREFHKPLVK [T36I] | -0.09 ± 0.062 |
| KRVEVKPYVLDDQMCDECQGARCGGKFAPFFCANVTCLQYYAEFCWANIHSRAGREFHKPLVK [C42A] | -0.593 ± 0.11 |
